Measured values taken from patent US11352401.

B1: DDX5-001 (YLLPAIVHI from DDX5) (peptide)
peptide: YLLPAIVHI
notes: Negative control peptide for T cell stimulations (still a pMHC complex with A*02:01); also called 533

biological target: T1, HLA-B*44 (human); assay: UV peptide-exchange ELISA; ++++ = yield >75%
T1 construct: MHC monomer made peptide-receptive by UV cleavage of a UV-sensitive ligand; also called peptide-receptive MHC class I monomer

Binder	peptide exchange yield
SEMNVNMKY [SEMNVNMKY (SEQ ID NO: 365)]	> 75%
AEVGFVRFF [AEVGFVRFF (SEQ ID NO: 484)]	> 75%
NEVLTYIKF [NEVLTYIKF (SEQ ID NO: 352)]	> 75%
MEVDPIGHVYIF [MEVDPIGHVYIF (SEQ ID NO: 320)]	> 75%
DELFSIALY [DELFSIALY (SEQ ID NO: 359)]	> 75%
AEMLERVIKNY [AEMLERVIKNY (SEQ ID NO: 319)]	> 75%
SENLFFASF [SENLFFASF (SEQ ID NO: 361)]	> 75%
IEFIHPQAF [IEFIHPQAF (SEQ ID NO: 345)]	> 75%
GEIIMQNNW [GEIIMQNNW (SEQ ID NO: 353)]	> 75%
VEAPGPVHVYW [VEAPGPVHVYW (SEQ ID NO: 346)]	> 75%
SEIGKAVGF [SEIGKAVGF (SEQ ID NO: 489)]	> 75%
SEPALLHSW [SEPALLHSW (SEQ ID NO: 339)]	> 75%
FEYDFLLQRI (also called FEYDFLLORI) [FEYDFLLQRI (SEQ ID NO: 328)]	> 75%
KEADIHFLI [KEADIHFLI (SEQ ID NO: 358)]	> 75%
TENRYCVQL [TENRYCVQL (SEQ ID NO: 337)]	> 75%

biological target: T1, HLA-B*44; assay: UV peptide-exchange ELISA; ++ = yield >20%
Text: (§1) Candidate peptides for T cell based therapies according to the present invention were further tested for their MHC binding capacity (affinity). The individual peptide-MHC complexes were produced by UV-ligand exchange, where a UV-sensitive peptide is cleaved upon UV-irradiation, and exchanged with the peptide of interest as analyzed. Only peptide candidates that can effectively bind and stabilize the peptide-receptive MHC molecules prevent dissociation of the MHC complexes. To determine the yield of the exchange reaction, an ELISA was performed based on the detection of the light chain (β2m) of stabilized MHC complexes. The assay was performed as generally described in Rodenko et al. (Rodenko et al., 2006).
(§2) 96 well MAXISorp plates (NUNC) were coated over night with 2 ug/ml streptavidin in PBS at room temperature, washed 4× and blocked for 1 h at 37° C. in 2% BSA containing blocking buffer. […] Peptide-MHC monomers of the UV-exchange reaction were diluted 100-fold in blocking buffer. Samples were incubated for 1 h at 37° C., washed four times, incubated with 2 ug/ml HRP conjugated anti-β2m for 1h at 37° C., washed again and detected with TMB solution that is stopped with […]. Absorption was measured at 450 nm.

Binder	peptide exchange yield
AEEEIMKKI [AEEEIMKKI (SEQ ID NO: 476)]	20 to 50%
TEFTTVLY [TEFTTVLY (SEQ ID NO: 343)]	20 to 50%
QEQDVDLVQKY [QEQDVDLVQKY (SEQ ID NO: 325)]	20 to 50%
GEVSGLTKDF [GEVSGLTKDF (SEQ ID NO: 480)]	20 to 50%
KEVDPAGHSY [KEVDPAGHSY (SEQ ID NO: 322)]	20 to 50%
GEFPVRVQV [GEFPVRVQV (SEQ ID NO: 368)]	20 to 50%
ASSSGPMRWW [ASSSGPMRWW (SEQ ID NO: 336)]	20 to 50%
AENLFRAF [AENLFRAF (SEQ ID NO: 366)]	20 to 50%
MEVPVIKI [MEVPVIKI (SEQ ID NO: 332)]	20 to 50%
TEGIIMKDF [TEGIIMKDF (SEQ ID NO: 372)]	20 to 50%
SDMVRFHLF [SDMVRFHLF (SEQ ID NO: 355)]	20 to 50%
KELEATKQY [KELEATKQY (SEQ ID NO: 335)]	20 to 50%
GELALKKKI [GELALKKKI (SEQ ID NO: 371)]	20 to 50%
AEDEPAAAHL [AEDEPAAAHL (SEQ ID NO: 334)]	20 to 50%
TEFPIIKMY [TEFPIIKMY (SEQ ID NO: 488)]	20 to 50%

biological target: T2, HLA-A*01 (human); assay: UV peptide-exchange ELISA; ++ = yield >20%
T2 construct: MHC monomer made peptide-receptive by UV cleavage of a UV-sensitive ligand; also called peptide-receptive MHC class I monomer
Text: as §1, §2

Binder	peptide exchange yield
GLNTGSALSY [GLNTGSALSY (SEQ ID NO: 146)]	20 to 50%
GSSDSSTLPKL [GSSDSSTLPKL (SEQ ID NO: 147)]	20 to 50%
YLPQHTIETY [YLPQHTIETY (SEQ ID NO: 199)]	20 to 50%
ATDLVVLDRY [ATDLVVLDRY (SEQ ID NO: 136)]	20 to 50%
SSDSSTLPKL [SSDSSTLPKL (SEQ ID NO: 178)]	20 to 50%

biological target: T3, HLA-B*07 (human); assay: UV peptide-exchange ELISA; ++ = yield >20%
T3 construct: MHC monomer made peptide-receptive by UV cleavage of a UV-sensitive ligand; also called peptide-receptive MHC class I monomer
Text: as §1, §2

Binder	peptide exchange yield
HPELVNHIVF [HPELVNHIVF (SEQ ID NO: 267)]	20 to 50%
FPVTSIFHTF [FPVTSIFHTF (SEQ ID NO: 284)]	20 to 50%
FPQKFIDLL [FPQKFIDLL (SEQ ID NO: 288)]	20 to 50%
HPMIDINGIIVF [HPMIDINGIIVF (SEQ ID NO: 278)]	20 to 50%
YPENGVVQM [YPENGVVQM (SEQ ID NO: 469)]	20 to 50%
MPLLWLRGF [MPLLWLRGF (SEQ ID NO: 273)]	20 to 50%

biological target: T4, HLA-B*08 (human); assay: UV peptide-exchange ELISA; +++ = yield >50%
T4 construct: MHC monomer made peptide-receptive by UV cleavage of a UV-sensitive ligand; also called peptide-receptive MHC class I monomer

Binder	peptide exchange yield
VIKEKALTL [VIKEKALTL (SEQ ID NO: 316)]	50 to 75%
HLLQKQTSI [HLLQKQTSI (SEQ ID NO: 302)]	50 to 75%
FNKRKPLSL [FNKRKPLSL (SEQ ID NO: 298)]	50 to 75%
DAIQRKYSC [DAIQRKYSC (SEQ ID NO: 309)]	50 to 75%
VASPKHCVL [VASPKHCVL (SEQ ID NO: 300)]	50 to 75%

biological target: T5, HLA-A*02 (human); assay: UV peptide-exchange ELISA; +++ = yield >50%
T5 construct: MHC monomer made peptide-receptive by UV cleavage of a UV-sensitive ligand; also called peptide-receptive MHC class I monomer

Binder	peptide exchange yield
FALPGLLHA [FALPGLLHA (SEQ ID NO: 91)]	50 to 75%
FIISDWRFVL [FIISDWRFVL (SEQ ID NO: 101)]	50 to 75%
NLRDLLSEV [NLRDLLSEV (SEQ ID NO: 92)]	50 to 75%

biological target: T6, HLA-A*24 (human); assay: UV peptide-exchange ELISA; + = yield >10%
T6 construct: MHC monomer made peptide-receptive by UV cleavage of a UV-sensitive ligand; also called peptide-receptive MHC class I monomer
Text: as §1, §2

Binder	peptide exchange yield
IQMDEPMAF [IQMDEPMAF (SEQ ID NO: 43)]	10 to 20%
LIFMLANVF [LIFMLANVF (SEQ ID NO: 39)]	10 to 20%
STIRGELFFF [STIRGELFFF (SEQ ID NO: 12)]	10 to 20%
ILKEDPFLF [ILKEDPFLF (SEQ ID NO: 19)]	10 to 20%
AYTLLGHEFV [AYTLLGHEFV (SEQ ID NO: 77)]	10 to 20%

biological target: HLA-A*02:01 (human); assay: preformed control pMHC complex for aAPC stimulation
Experimental: (§3) 800.000 beads/200 μl were coated in 96-well plates in the presence of 4×12.5 ng different biotin-pMHC, washed and 600 ng biotin anti-CD28 were added subsequently in a volume of 200 μl. […] Half of the medium was then exchanged by fresh TCM supplemented with 80 U/ml IL-2 and incubating was continued for 4 days at 37° C. This stimulation cycle was performed for a total of three times. For the pMHC multimer readout using 8 different pMHC molecules per condition, a two-dimensional combinatorial coding approach was used as previously described (Andersen et al., 2012) with minor modifications encompassing coupling to 5 different fluorochromes. Finally, multimeric analyses were performed by staining the cells with Live/dead near IR dye (Invitrogen, Karlsruhe, Germany), CD8-FITC antibody clone SK1 (BD, Heidelberg, Germany) and fluorescent pMHC multimers. For analysis, a BD LSRII SORP cytometer equipped with appropriate lasers and filters was used. Peptide specific cells were calculated as percentage of total CD8+ cells. Evaluation of multimeric analysis was done using the FlowJo software (Tree Star, Oregon, USA). In vitro priming of specific multimer+CD8+ lymphocytes was detected by comparing to negative control stimulations.

Binder	binding result
B1	binds

biological target: HLA-A*24:02 (human); assay: preformed pMHC complex on aAPC beads and as fluorescent multimer, in vitro CD8+ T cell priming
Experimental: (§4) Viable singlet cells were gated for CD8+ lymphocytes. Boolean gates helped excluding false-positive events detected with multimers specific for different peptides.
as §3

Binder	binding result
VYEKNGYIYF (Synthetic peptide) [SeqID No 504 peptide (VYEKNGYIYF)]	binds

biological target: HLA-A*02:01 (human); assay: as above
Experimental: as §4, §3

Binder	binding result
KIQEMQHFL (Synthetic peptide) [SeqID No 520 peptide (KIQEMQHFL)]	binds
